Laboratory results: patent US20170008928A1, “NOVEL PEPTIDES AND PEPTIDE DERIVATIVES AND USES THEREOF” (Novo Nordisk A/S, priority 2015, published 2017)
Starred links: 1 amine or outer side, 2 acyl side, 3 side chain; linkers in the order of their positions; H or OH if unused. Non-standard residues stand in square brackets, D forms with d. No end group written: not given here. *: point of attachment. Phe(4-CH2SO3H) = N[C@@H](Cc1ccc(CS(=O)(=O)O)cc1)C(=O)O; C20 diacid = O=C(O)CCCCCCCCCCCCCCCCCCC(=O)*; sY = N[C@@H](Cc1ccc(OS(=O)(=O)O)cc1)C(=O)O; C18 diacid = O=C(O)CCCCCCCCCCCCCCCCC(=O)*; γGlu = O=C(O)[C@H](CCC(=O)[*:2])N[*:1]; βAsp = O=C(O)[C@H](CC(=O)[*:2])N[*:1]; Met(O2) = CS(=O)(=O)CC[C@H](N)C(=O)O; NMeF = CN[C@@H](Cc1ccccc1)C(=O)O; dNMeD = CN[C@H](CC(=O)O)C(=O)O; Nle = CCCC[C@H](N)C(=O)O; AEEA = NCCOCCOCC(=O)O

T1: human cholecystokinin-1 receptor (human, UniProt P32238 1-428)
T1 sequence (looked up): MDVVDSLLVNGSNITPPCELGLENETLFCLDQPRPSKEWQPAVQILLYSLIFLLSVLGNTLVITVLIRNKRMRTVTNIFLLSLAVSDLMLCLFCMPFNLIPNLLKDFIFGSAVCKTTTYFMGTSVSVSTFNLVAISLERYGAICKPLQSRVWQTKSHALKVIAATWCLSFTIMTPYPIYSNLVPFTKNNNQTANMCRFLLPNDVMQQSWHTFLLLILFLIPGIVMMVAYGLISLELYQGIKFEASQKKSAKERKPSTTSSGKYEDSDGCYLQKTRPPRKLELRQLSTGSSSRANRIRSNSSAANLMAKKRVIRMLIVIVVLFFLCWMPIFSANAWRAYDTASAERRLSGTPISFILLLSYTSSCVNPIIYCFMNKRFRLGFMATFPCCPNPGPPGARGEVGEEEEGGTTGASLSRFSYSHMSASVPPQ

T2: human cholecystokinin-2 receptor (human, UniProt P32239 1-447)
T2 sequence (looked up): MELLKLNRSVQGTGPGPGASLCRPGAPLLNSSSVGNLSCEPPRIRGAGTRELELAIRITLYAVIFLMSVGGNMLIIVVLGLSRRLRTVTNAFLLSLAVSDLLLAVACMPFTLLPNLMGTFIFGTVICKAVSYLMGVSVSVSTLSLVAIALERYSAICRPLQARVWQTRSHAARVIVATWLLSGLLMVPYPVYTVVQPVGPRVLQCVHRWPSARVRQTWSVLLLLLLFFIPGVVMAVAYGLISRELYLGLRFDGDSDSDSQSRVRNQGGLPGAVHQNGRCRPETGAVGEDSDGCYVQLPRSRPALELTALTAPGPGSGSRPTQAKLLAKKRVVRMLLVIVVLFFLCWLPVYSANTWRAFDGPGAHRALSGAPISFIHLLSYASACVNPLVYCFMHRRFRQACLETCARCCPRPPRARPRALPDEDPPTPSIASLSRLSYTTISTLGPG


Columns and labels:
[1] = target: T1, human cholecystokinin-1 receptor; assay: cell-based or functional assay
[2] = target: T1, human cholecystokinin-1 receptor; assay: SPA competition vs [125I]-CCK-8s, membranes
Protocol: (§1) CCK receptor binding assays were performed in 96-well Optiplates (Cat #6005290, PerkinElmer, Waltham, Mass., USA) in a total volume of 200 μl per well.
(§2) The plates were sealed and incubated in the dark at +22° C. for 2 hours on a IKA MTS plate shaker (IKA-Werke D-79219 Staufen) set at 300 rpm and thereafter centrifuged at 1500 rpm for 10 minutes in a Heraeus Multifuge 3s centrifuge. SPA bead light emission was measured in a TopCount NXT (PerkinElmer) for 2 min/well after a delay of 60 min.

[3] = target: T2, human cholecystokinin-2 receptor; assay: cell-based or functional assay
[4] = target: T2, human cholecystokinin-2 receptor; assay: SPA competition vs [125I]-CCK-8s, membranes
Protocol: as §1, §2

| Binder | EC50 (CCK-1R) [1] [nM] | IC50 [2] [nM] | EC50 (CCK-2R) [3] [nM] | IC50 [4] [nM] |
| --- | --- | --- | --- | --- |
| {C18 diacid-γGlu-AEEA-AEEA}-[βAsp][Phe(4-CH2SO3H)][Nle]GW[Nle][dNMeD][NMeF]-NH2 (SMILES CCCC[C@H](NC(=O)[C@H](Cc1ccc(CS(=O)(=O)O)cc1)NC(=O)C[C@H](NC(=O)COCCOCCNC(=O)COCCOCCNC(=O)CC[C@H](NC(=O)CCCCCCCCCCCCCCCCC(=O)O)C(=O)O)C(=O)O)C(=O)NCC(=O)N[C@@H](Cc1c[nH]c2ccccc12)C(=O)N[C@@H](CCCC)C(=O)N(C)[C@H](CC(=O)O)C(=O)N(C)[C@@H](Cc1ccccc1)C(N)=O, X = Nle or Nal) | 0.36 | 0.063 |  |  |
| D[Phe(4-CH2SO3H)][Nle]GW[Nle][dNMeD][NMeF]-NH2 (N-terminus assumed; SMILES CCCC[C@H](NC(=O)[C@H](Cc1ccc(CS(=O)(=O)O)cc1)NC(=O)[C@@H](N)CC(=O)O)C(=O)NCC(=O)N[C@@H](Cc1c[nH]c2ccccc12)C(=O)N[C@@H](CCCC)C(=O)N(C)[C@H](CC(=O)O)C(=O)N(C)[C@@H](Cc1ccccc1)C(N)=O, X = Nle or Nal) [Asp-Phe(4-sulfomethyl)-Nle-Gly-Trp-Nle-DMeAsp-MePhe-amide] | 0.25 | 0.046 | > 1000 |  |
| EGPWLEEEEEAYGWMDF (N-terminal pyroglutamic acid (pE, Pyr); C-terminal amide; Tyr non-sulfated) | 530 | 340 |  |  |
| {C18 diacid-γGlu-AEEA-AEEA}-D[sY]LGW[Met(O2)][dNMeD][NMeF]-NH2 | 0.14 | 0.64 | > 1000 |  |
| {C18 diacid-γGlu-AEEA-AEEA}-E[sY]LGWQ[dNMeD][NMeF]-NH2 | 0.22 | 0.097 | > 1000 |  |
| E[sY]LGWQ[dNMeD][NMeF]-NH2 [Glu-sTyr-Leu-Gly-Trp-Gln-DMeAsp-MePhe-amide] |  | 0.085 | > 1000 |  |
| {C18 diacid}-GSSGSSD[sY]LGW[Nle][dNMeD][NMeF]-NH2 (SMILES CCCC[C@H](NC(=O)[C@H](Cc1c[nH]c2ccccc12)NC(=O)CNC(=O)[C@H](CC(C)C)NC(=O)[C@H](Cc1ccc(OS(=O)(=O)O)cc1)NC(=O)[C@H](CC(=O)O)NC(=O)[C@H](CO)NC(=O)[C@H](CO)NC(=O)CNC(=O)[C@H](CO)NC(=O)[C@H](CO)NC(=O)CNC(=O)CCCCCCCCCCCCCCCCC(=O)O)C(=O)N(C)[C@H](CC(=O)O)C(=O)N(C)[C@@H](Cc1ccccc1)C(N)=O, X = Nle or Nal; The Gly-Ser-Ser-Gly-Ser-Ser linker is written as part of the chain) [17-Carboxyheptadecanoyl-Gly-Ser-Ser-Gly-Ser-Ser-Asp-sTyr-Leu-Gly-Trp-Nle-DMeAsp-MePhe-amide] | 0.61 |  | 17 | 370 |
| {C18 diacid-γGlu-AEEA-AEEA}-K[AEEA]D[Phe(4-CH2SO3H)][Nle]GW[Nle][dNMeD][NMeF]-NH2 (X = Nle or Nal) |  | 0.081 |  | 7400 |
| [βAsp][Phe(4-CH2SO3H)][Nle]GW[Nle][dNMeD][NMeF]-NH2 (N-terminus assumed; SMILES CCCC[C@H](NC(=O)[C@H](Cc1ccc(CS(=O)(=O)O)cc1)NC(=O)C[C@H](N)C(=O)O)C(=O)NCC(=O)N[C@@H](Cc1c[nH]c2ccccc12)C(=O)N[C@@H](CCCC)C(=O)N(C)[C@H](CC(=O)O)C(=O)N(C)[C@@H](Cc1ccccc1)C(N)=O, X = Nle or Nal) [bAsp-Phe(4-sulfomethyl)-Nle-Gly-Trp-Nle-DMeAsp-MePhe-amide] | 0.19 |  | > 1000 | 2900 |
| {C18 diacid-γGlu-AEEA-AEEA}-D[sY]KGW[Nle][dNMeD][NMeF]-NH2 (X = Nle or Nal) | 0.36 | 0.099 | 310 |  |
| D[sY]AGW[Nle][dNMeD][NMeF]-NH2 (N-terminus assumed; SMILES CCCC[C@H](NC(=O)[C@H](Cc1c[nH]c2ccccc12)NC(=O)CNC(=O)[C@H](C)NC(=O)[C@H](Cc1ccc(OS(=O)(=O)O)cc1)NC(=O)[C@@H](N)CC(=O)O)C(=O)N(C)[C@H](CC(=O)O)C(=O)N(C)[C@@H](Cc1ccccc1)C(N)=O, X = Nle or Nal) [Asp-sTyr-Ala-Gly-Trp-Nle-DMeAsp-MePhe-amide] | 0.16 | 0.055 | > 1000 |  |
| {C20 diacid-γGlu-AEEA-AEEA}-E[sY]LGW[Nle][dNMeD][NMeF]-NH2 (SMILES CCCC[C@H](NC(=O)[C@H](Cc1c[nH]c2ccccc12)NC(=O)CNC(=O)[C@H](CC(C)C)NC(=O)[C@H](Cc1ccc(OS(=O)(=O)O)cc1)NC(=O)[C@H](CCC(=O)O)NC(=O)COCCOCCNC(=O)COCCOCCNC(=O)CC[C@H](NC(=O)CCCCCCCCCCCCCCCCCCC(=O)O)C(=O)O)C(=O)N(C)[C@H](CC(=O)O)C(=O)N(C)[C@@H](Cc1ccccc1)C(N)=O, X = Nle or Nal) |  |  | 32 | 430 |
| {C18 diacid-γGlu-AEEA-AEEA}-E[sY]LGW[Nle][dNMeD]F-NH2 (SMILES CCCC[C@H](NC(=O)[C@H](Cc1c[nH]c2ccccc12)NC(=O)CNC(=O)[C@H](CC(C)C)NC(=O)[C@H](Cc1ccc(OS(=O)(=O)O)cc1)NC(=O)[C@H](CCC(=O)O)NC(=O)COCCOCCNC(=O)COCCOCCNC(=O)CC[C@H](NC(=O)CCCCCCCCCCCCCCCCC(=O)O)C(=O)O)C(=O)N(C)[C@H](CC(=O)O)C(=O)N[C@@H](Cc1ccccc1)C(N)=O, X = Nle or Nal) | 0.37 |  | 94 | 480 |
| D[sY]KGW[Nle][dNMeD][NMeF]-NH2 (N-terminus assumed; SMILES CCCC[C@H](NC(=O)[C@H](Cc1c[nH]c2ccccc12)NC(=O)CNC(=O)[C@H](CCCCN)NC(=O)[C@H](Cc1ccc(OS(=O)(=O)O)cc1)NC(=O)[C@@H](N)CC(=O)O)C(=O)N(C)[C@H](CC(=O)O)C(=O)N(C)[C@@H](Cc1ccccc1)C(N)=O, X = Nle or Nal) [Asp-sTyr-Lys-Gly-Trp-Nle-DMeAsp-MePhe-amide] | 0.26 | 0.03 | > 1000 |  |
| D[sY]RGW[Nle][dNMeD][NMeF]-NH2 (X = Nle or Nal) [Asp-sTyr-Arg-Gly-Trp-Nle-DMeAsp-MePhe-amide] |  |  | 910 | 1500 |
| [sY][Nle]GW[Nle][dNMeD][NMeF]-NH2 (N-terminus assumed; SMILES CCCC[C@H](NC(=O)[C@@H](N)Cc1ccc(OS(=O)(=O)O)cc1)C(=O)NCC(=O)N[C@@H](Cc1c[nH]c2ccccc12)C(=O)N[C@@H](CCCC)C(=O)N(C)[C@H](CC(=O)O)C(=O)N(C)[C@@H](Cc1ccccc1)C(N)=O, X = Nle or Nal) [sTyr-Nle-Gly-Trp-Nle-DMeAsp-MePhe-amide] | 0.33 | 0.06 | > 1000 |  |
| {C18 diacid-γGlu-AEEA-AEEA}-D[Phe(4-CH2SO3H)][Nle]GW[Nle][dNMeD][NMeF]-NH2 (X = Nle or Nal) |  | 0.26 |  |  |
| {C18 diacid-γGlu-AEEA-AEEA}-[dD][Phe(4-CH2SO3H)][Nle]GW[Nle][dNMeD][NMeF]-NH2 (X = Nle or Nal) | 0.37 | 0.072 |  |  |
